Experimental data as given in PMC5750232, “RAD54 N-terminal domain is a DNA sensor that couples ATP hydrolysis with branch migration of Holliday junctions” (Nature Communications, 2018).
Changes are numbered by the printed parent chain.

Columns and labels:
RAD54 1-142 T31E = molecular target: T1, RAD54 1-142 T31E (human, UniProt Q92698 1-142, T31E); assay: EMSA; no significant effect of mutation; 5 mM Mg2+, 2 mM ATP; 25 mM Tris-acetate pH 7.5, 5 mM Mg acetate, 100 ug/ml BSA, 2 mM DTT, 2 mM ATP, 10% glycerol, 4 C, 45 min; 30 nM PX junction; 6% native PAGE in 0.25x TBE; conditions: protein: recombinant; tags: Sumo-His, cleaved; partial X junction with one ssDNA arm, 4 strands
T1 sequence: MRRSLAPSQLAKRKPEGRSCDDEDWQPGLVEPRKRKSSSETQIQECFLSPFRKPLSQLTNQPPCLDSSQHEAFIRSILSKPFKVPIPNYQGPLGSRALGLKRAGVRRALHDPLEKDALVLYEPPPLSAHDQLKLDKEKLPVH

RAD54 1-142 52AA53 = molecular target: T2, RAD54 1-142 52AA53 (human, UniProt Q92698 1-142, R52A;K53A); assay: EMSA; similar to non-mutated 1-142; 5 mM Mg2+, 2 mM ATP; 25 mM Tris-acetate pH 7.5, 5 mM Mg acetate, 100 ug/ml BSA, 2 mM DTT, 2 mM ATP, 10% glycerol, 4 C, 45 min; 30 nM PX junction; 6% native PAGE in 0.25x TBE; conditions: protein: recombinant; tags: Sumo-His, cleaved; partial X junction with one ssDNA arm, 4 strands
T2 sequence: T1 sequence with E31T, R52A, K53A

B1: non-mobile PX junction (174/175/176/181) (structured_DNA)
DNA 1: GACGCTGCCGAATTCTACCAGTGCCTTGCTAGGACATCTTTGCCCACCTGCAGGTTCACCC
DNA 2: TGGGTGAACCTGCAGGTGGGCAAAGATGTCCTAGCAATGTAATCGTCAAGCTTTATGCCGTT
DNA 3: CAACGGCATAAAGCTTGACGATTACATTGCTAGGACATGCTGTCTAGAGGATCCGACTATCGA
DNA 4: TCGATAGTCGGATCCTCTAGACAGC
Does B1 bind (RAD54 1-142 T31E)?
Result: binds

Does B1 bind (RAD54 1-142 52AA53)?
Result: binds
